system: Escherichia coli TOP10; test: shrunken log2 fold change of peptide-encoding DNA abundance (4.5 h post-induction vs induction); higher = less antimicrobial activity (less host growth inhibition); conditions: time post-induction: 4.5 h; library: site-saturation at positions 5, 18, 19, 20
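Also: peptides expressed intracellularly from a pBAD plasmid library in pooled LB shake-flask culture, induced with 0.3% L-arabinose, DNA abundance read by NGS, three biological replicates, DESeq2 with apeglm shrinkage.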

Sequence | shrunken log2 fold change
RRIRQRPPRLPRPRPRPSMCPRP | -0.194
RRIRKRPPRLPRPRPRPYIKPRP | -0.28
RRIRLRPPRLPRPRPRPYQSPRP | -0.524
RRIRTRPPRLPRPRPRPIRPPRP | 0.122
RRIRMRPPRLPRPRPRPLYIPRP | -1.01
RRIRNRPPRLPRPRPRPFSCPRP | -0.03
RRIRARPPRLPRPRPRPQAPPRP | 0.238
RRIRYRPPRLPRPRPRPPNAPRP | 0.153
RRIRRRPPRLPRPRPRPMRVPRP | 0.93
RRIRKRPPRLPRPRPRPFLQPRP | -0.0765
RRIRVRPPRLPRPRPRPANDPRP | 0.0219
RRIRGRPPRLPRPRPRPHAMPRP | 0.171
RRIRIRPPRLPRPRPRPSFGPRP | -0.389
RRIRKRPPRLPRPRPRPRCHPRP | 0.237
RRIRDRPPRLPRPRPRPVFKPRP | -0.0946
RRIRLRPPRLPRPRPRPCGCPRP | 0.282
RRIRTRPPRLPRPRPRPRYGPRP | -0.284
RRIRIRPPRLPRPRPRPYWHPRP | -0.718
RRIRVRPPRLPRPRPRPEMWPRP | 0.0217
RRIRTRPPRLPRPRPRPYKNPRP | -0.937
RRIRFRPPRLPRPRPRPRLFPRP | -0.0286
RRIRMRPPRLPRPRPRPMFKPRP | 0.0609

Sequence | shrunken log2 fold change
RRIRQRPPRLPRPRPRPTPPPRP | 0.537
RRIRDRPPRLPRPRPRPPGNPRP | 0.21
RRIRMRPPRLPRPRPRPNKWPRP | 0.079
RRIRRRPPRLPRPRPRPMAFPRP | 0.024
RRIRGRPPRLPRPRPRPSPAPRP | 0.901
RRIRTRPPRLPRPRPRPTFEPRP | -0.0371
RRIRYRPPRLPRPRPRPWQKPRP | -0.166
RRIRTRPPRLPRPRPRPRVGPRP | 0.364
RRIRERPPRLPRPRPRPQNTPRP | -0.497
RRIRTRPPRLPRPRPRPALLPRP | 0.226
RRIRWRPPRLPRPRPRPPCAPRP | 0.563
RRIRYRPPRLPRPRPRPGLGPRP | -0.0488
RRIRHRPPRLPRPRPRPDKHPRP | -0.25
RRIRKRPPRLPRPRPRPMRPPRP | 1.22
RRIRSRPPRLPRPRPRPSITPRP | -0.392
RRIRNRPPRLPRPRPRPIALPRP | -0.0133
RRIRERPPRLPRPRPRPSHNPRP | -0.903
RRIRSRPPRLPRPRPRPGFVPRP | 0.287
RRIRHRPPRLPRPRPRPTDFPRP | -0.0704
RRIRVRPPRLPRPRPRPDQFPRP | -0.0568
RRIRIRPPRLPRPRPRPSLLPRP | -0.374
RRIRIRPPRLPRPRPRPARRPRP | 0.72

Sequence | shrunken log2 fold change
RRIRSRPPRLPRPRPRPERRPRP | 0.23
RRIRFRPPRLPRPRPRPECLPRP | -0.0562
RRIRTRPPRLPRPRPRPWCDPRP | -0.596
RRIRVRPPRLPRPRPRPGTTPRP | -0.108
RRIRARPPRLPRPRPRPDKEPRP | 0.0435
RRIRVRPPRLPRPRPRPIKRPRP | 0.048
RRIRLRPPRLPRPRPRPQIIPRP | 0.0457
RRIRWRPPRLPRPRPRPINNPRP | -0.659
RRIRIRPPRLPRPRPRPDKNPRP | -0.673
RRIRTRPPRLPRPRPRPHHDPRP | -0.469
RRIRSRPPRLPRPRPRPNHFPRP | -0.21
RRIRWRPPRLPRPRPRPFWMPRP | -0.235
RRIRIRPPRLPRPRPRPCRDPRP | -0.132
RRIRGRPPRLPRPRPRPEYCPRP | 0.307
RRIRCRPPRLPRPRPRPPHYPRP | 0.638
RRIRRRPPRLPRPRPRPRKLPRP | 0.253
RRIRNRPPRLPRPRPRPFKQPRP | -0.0135
RRIRCRPPRLPRPRPRPSWMPRP | 0.326
RRIRKRPPRLPRPRPRPNRHPRP | -0.0212
RRIRGRPPRLPRPRPRPYSIPRP | 0.273
RRIRIRPPRLPRPRPRPMPFPRP | 0.0123
RRIRVRPPRLPRPRPRPAFIPRP | 0.00175

Sequence | shrunken log2 fold change
RRIRNRPPRLPRPRPRPVQPPRP | 0.0494
RRIRVRPPRLPRPRPRPGVFPRP | 0.117
RRIRERPPRLPRPRPRPEWPPRP | 0.102
RRIRTRPPRLPRPRPRPCCHPRP | -0.0132
RRIRDRPPRLPRPRPRPPLNPRP | 0.0565
RRIRLRPPRLPRPRPRPSCRPRP | -0.116
RRIRCRPPRLPRPRPRPIWSPRP | 0.162
RRIRSRPPRLPRPRPRPQGQPRP | -0.154
RRIRIRPPRLPRPRPRPIFFPRP | -0.123
RRIRIRPPRLPRPRPRPHHLPRP | -0.221
RRIRHRPPRLPRPRPRPFNMPRP | -0.0933
RRIRNRPPRLPRPRPRPPYRPRP | -0.11
RRIRFRPPRLPRPRPRPFIHPRP | -0.724
RRIRQRPPRLPRPRPRPTTAPRP | -0.00139
RRIRERPPRLPRPRPRPHWFPRP | -0.128
RRIRDRPPRLPRPRPRPPVQPRP | 0.104
RRIRYRPPRLPRPRPRPKLNPRP | -0.689
RRIRSRPPRLPRPRPRPAQTPRP | 0.0615
RRIRTRPPRLPRPRPRPPAAPRP | 0.353
RRIRMRPPRLPRPRPRPIVIPRP | -0.0284
RRIRNRPPRLPRPRPRPCRQPRP | -0.065
RRIRLRPPRLPRPRPRPCDCPRP | -0.0629

Sequence | shrunken log2 fold change
RRIRRRPPRLPRPRPRPVMRPRP | 0.714
RRIRSRPPRLPRPRPRPLLNPRP | -0.117
RRIRMRPPRLPRPRPRPSAMPRP | 1.44
RRIRWRPPRLPRPRPRPMFPPRP | 0.0483
RRIRMRPPRLPRPRPRPDVGPRP | 0.0278
RRIRTRPPRLPRPRPRPQQSPRP | -0.0133
RRIRIRPPRLPRPRPRPPDPPRP | 0.243
RRIRKRPPRLPRPRPRPTASPRP | 0.783
RRIRARPPRLPRPRPRPDNFPRP | -0.294
RRIRHRPPRLPRPRPRPNAVPRP | 0.0142
RRIRRRPPRLPRPRPRPIRAPRP | 0.266
RRIRARPPRLPRPRPRPGFRPRP | 0.555
RRIRFRPPRLPRPRPRPFWFPRP | -0.275
RRIRYRPPRLPRPRPRPQLPPRP | -0.0333
RRIRNRPPRLPRPRPRPIGSPRP | -0.00277
RRIRDRPPRLPRPRPRPFTLPRP | -0.0329
RRIRTRPPRLPRPRPRPMTWPRP | 0.0637
RRIRRRPPRLPRPRPRPCQYPRP | -0.137
RRIRFRPPRLPRPRPRPEPQPRP | 0.417
RRIRDRPPRLPRPRPRPRAPPRP | 0.359
RRIRTRPPRLPRPRPRPERWPRP | 0.354

— the supplement of paper PMC9112550, “Optimization of the antimicrobial peptide Bac7 by deep mutational scanning” (BMC Biology, 2022)
